Reference: article PMC10206564

Molecular target: His954 (UniProt position 954, […])
Experiment: NMR
Details: 30 mM NaCl plus 20 mM sodium phosphate, Folded post-fusion six-helix bundle (6HB) state, 0.15 mM protein, no lipid

**Q.** For “Spike glycoprotein S2 HR1-HR2 fusion core ('Core') Q954H variant (Severe acute respiratory syndrome coronavirus 2 (SARS-CoV-2); Q954H)”, which pKa is on record?
**A.** 6.40
